Source: the supplement of paper PMC12042874
± gives the uncertainty stated by the source.

Assay: amyloid nucleation score (Sup35N fusion, yeast selection) (log enrichment); library NNK3; higher = more nucleation; inactive = no reads after selection
Procedure, shortened: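 After 24 hours of induction with 100 μM copper sulfate, psi-negative yeast expressing peptides of 20 random codons fused to Sup35N were grown for 7 days at 30°C on medium lacking adenine and uracil. Input and output plasmid inserts were sequenced with Illumina, and sequences with under 100 input reads were discarded. Scores for nucleation are the DiMSum log enrichment of output over input reads, centred on the mode score of non-aggregating sequences.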

Row | Substance | amyloid nucleation score
1 | PLGDARLTSRRDPPYRTTPL | 0.979 ± 0.17
2 | PLITVDY | -0.153 ± 0.7
3 | PLQDL | inactive
4 | PLRKCAMCSWVSSGEGPTYP | 0.483 ± 0.24
5 | PLRKSGQPSYAMPTRHARCI | inactive
6 | PLRRSMMRIPHATF | inactive
7 | PLSLGFVIGHHVSIPGSSTD | inactive
8 | PLTFT | inactive
9 | PNCGFVCMKMCATTDLFVCV | inactive
10 | PNMSIPLLCLCDNISDFHRF | 1.69 ± 0.12
11 | PNRQDYIVTYLGIPNFLSTW | inactive
12 | PNRQTLFSSIRF | 0.092 ± 0.56
13 | PPFYMCFYLFVGLRNSMGWL | inactive
14 | PPVLVNGLTLKWEGVYSVNY | 0.802 ± 0.21
15 | PQTWVTWKIWYLGFGVAVGV | inactive
16 | PRDCS | inactive
17 | PREARQHRVRRTGFSVVFVS | inactive
18 | PRGWWPMGFSCGYFVFALTP | inactive
19 | PRNMVFYVFCNVSLTHAMYS | 0.845 ± 0.12
20 | PRRSNSFRLPLIHISQYSLK | 0.939 ± 0.2
21 | PRSANSARCVTISSNMEHSR | inactive
22 | PRTQSYECVYGYSLKRNWLA | inactive
23 | PRYRSLWFAKHMLAVLGSKW | inactive
24 | PSHWFISL | inactive

Row | Substance | amyloid nucleation score
25 | PSSIKRVL | -0.33 ± 0.8
26 | PSVHCMWCPRQPDVFPRWIV | inactive
27 | PSVPSNHLDCYLTWGT | inactive
28 | PSYFVI | inactive
29 | PTFNRAMTWYFKFLFHYAHD | inactive
30 | PTGLGTAYQLNAWTASFG | inactive
31 | PTITMANKDRFLRRCSPNGG | inactive
32 | PVFVCCRWHVVFGKNNGSAT | 1.47 ± 0.13
33 | PVHGVGLAIRGSYGSYTGLL | inactive
34 | PVKRVIYSRGYVQKCPLCP | inactive
35 | PVLGYAECIYKMYKSSQVSW | inactive
36 | PVSYVLEEVEPRVRVSGPSG | inactive
37 | PVTFSCYNTLACIKLYYGNV | 2.56 ± 0.066
38 | PVWVKYIDYCPSRKHLSCRV | inactive
39 | PVYVG | inactive
40 | PWGLGNSARCWCFFMGHCEA | -0.889 ± 2.5
41 | PWRRDKSGVVLSWDAISFAW | inactive
42 | PYAILFNAWNLSAPMACSWV | inactive
43 | PYFFSLRNPRI | inactive
44 | PYFFTDLICSFKIGAYEQGS | inactive
45 | PYGNSELYSERGERAHCNLG | inactive
46 | PYKNI | inactive
47 | PYMIEVLRSDVNHDCSHMKW | inactive
48 | PYRFLESTSRALYFTFSYTF | inactive

Row | Substance | amyloid nucleation score
49 | PYRGSPACMGDYGNQVGNGS | inactive
50 | PYRYLGARIRCMAKDSVSHI | inactive
51 | QAGLSCD | inactive
52 | QALGVGN | inactive
53 | QAQIYWM | inactive
54 | QCRQVIENNRVLFVAIKWEN | 0.57 ± 0.58
55 | QCSMDRNT | inactive
56 | QCVVVKCCWRDNRWLGSDLV | -0.178 ± 0.54
57 | QDFYFISILACGYIWH | inactive
58 | QDKMSMYTYMMR | inactive
59 | QDLSYRVGLFWDRSIVLNWY | inactive
60 | QDYSELRVSKKKVVRVG | inactive
61 | QEWKQWLMSWTSRKAFSLKS | inactive
62 | QFCSSYWYQGTAYCLLPIAT | inactive
63 | QFDKSNPWNSSSLMMPENGV | inactive
64 | QFSNNSLKVRFMCVLYVVDR | -0.039 ± 0.37
65 | QFVAFVYYVCLLWYTGALLI | inactive
66 | QGLSGRRGYSDRY | inactive
67 | QGNCVNRIC | inactive
68 | QILLSLQIWRWWVNRII | inactive
69 | QIQGAGHGM | 0.534 ± 0.21
70 | QIYSFFIWIEKTGVCRWLWA | inactive
71 | QKIPRDDEPMANQDRLSKIS | inactive
72 | QKLVMTYPVIVHNMVNLERY | 1.13 ± 0.074

Row | Substance | amyloid nucleation score
73 | QKMPSANDRLCISSFLYNLE | inactive
74 | QKRIQFTSECTRKRNFWLFS | inactive
75 | QKVYNFMWYLFQYIELVYMN | inactive
76 | QLCVISWLGR | 1.14 ± 0.15
77 | QLINWFRSDDLSLTAVKRKW | 0.596 ± 0.19
78 | QLSVNMYDCYDNGEHLRIGG | inactive
79 | QMRCLY | inactive
80 | QMRYLFACFYT | inactive
81 | QNTGLYVN | inactive
82 | QPLARRIGHISV | inactive
83 | QQGFSVLERCISEV | inactive
84 | QQHAVR | inactive
85 | QQKGHTYKLLYNGGRLYFPT | 0.29 ± 0.51
86 | QQMGYGKADSMFTSLVVYTM | inactive
87 | QRCCP | inactive
88 | QRKTYRTVEHGMHSSSNL | inactive
89 | QSFGMFAVYRAWVSIL | inactive
90 | QSHIVSRGLAEENTW | inactive
91 | QSLHSYNRSESCSLGSSFWI | inactive
92 | QSLIEPSD | inactive
93 | QSLRRQYLNYIRSIFESMEN | inactive
94 | QSLSNKVMLLSGRVNQVDVA | -0.935 ± 1.5
95 | QSSMLHL | inactive
96 | QSYVSFYMQVLRSDRTDILR | inactive

Row | Substance | amyloid nucleation score
97 | QTCSNYLNTFRSRRDWLVKG | inactive
98 | QTMAAYLYSWNNTV | inactive
99 | QTTLSYIVCMQSRQLRNRAW | 0.848 ± 0.099
100 | QVCPTLWYEVMCLN | inactive
101 | QVCYFYIIVLVLD | inactive
102 | QVLASTNATESCRIDRDTVV | inactive
103 | QVLQKVHG | inactive
104 | QVVTSYGGSAVEDITAML | inactive
105 | QWKKWLDTACKWVGVGGTIR | inactive
106 | QYFHMTWSVIVYEIGVRPYI | -0.449 ± 0.8
107 | QYVIIYEKQLGWRKFDFNSV | inactive
108 | QYVVSGMTYFWRYMRLVNVR | inactive
109 | QYYFSYSINSRLITCALVQG | 0.214 ± 0.37
110 | RACHFQVIMCMICALCGFAS | 1.91 ± 0.079
111 | RADFLPVKNVMRFRCEFWKR | inactive
112 | RADPTRITSPSLLTIMKTHE | inactive
113 | RADSGGKCLLAELDGLSPYW | inactive
114 | RAHPALVWMIARTKSSSICL | inactive
115 | RALKRFYNVIFYFRSYVPVS | inactive
116 | RALMGLVIKPKMSNTNLLDY | inactive
117 | RANRQQGVGTKQREGHNTVG | inactive
118 | RATKVDVRGGVA | -0.911 ± 1.5
